Assay results: patent US20070280881A1
pKd: −log10 of the molar value.

Each substance was assayed against TAG-72 (tumor associated antigen TAG-72) (human) (assay: binding data (text calls it ED50), method not stated; ELISA on TAG-72 coated plates per Example 7).

Substance	pKd
Humanized CC49 IgG (antibody)	8.60
ddCC49, no spacer (huCC49.ΔCH2, unfractionated mixture of 120 kDa and 240 kDa forms) (antibody)	9.10
CC49.ΔCH2 [gly/ser] (domain deleted CC49 with Gly/Ser spacer) (antibody)	8.74
